Reference: patent US20190077860A1 (EISAI R AND D MANAGEMENT, published 2019)
Residue numbers refer to the chain shown, from its start.

T1: human EphB4 extracellular region-SEAP-His protein (human, UniProt P54760 16-539)
T1 construct: extracellular domain; also called hEphB4-SEAP-His
T1 sequence (looked up): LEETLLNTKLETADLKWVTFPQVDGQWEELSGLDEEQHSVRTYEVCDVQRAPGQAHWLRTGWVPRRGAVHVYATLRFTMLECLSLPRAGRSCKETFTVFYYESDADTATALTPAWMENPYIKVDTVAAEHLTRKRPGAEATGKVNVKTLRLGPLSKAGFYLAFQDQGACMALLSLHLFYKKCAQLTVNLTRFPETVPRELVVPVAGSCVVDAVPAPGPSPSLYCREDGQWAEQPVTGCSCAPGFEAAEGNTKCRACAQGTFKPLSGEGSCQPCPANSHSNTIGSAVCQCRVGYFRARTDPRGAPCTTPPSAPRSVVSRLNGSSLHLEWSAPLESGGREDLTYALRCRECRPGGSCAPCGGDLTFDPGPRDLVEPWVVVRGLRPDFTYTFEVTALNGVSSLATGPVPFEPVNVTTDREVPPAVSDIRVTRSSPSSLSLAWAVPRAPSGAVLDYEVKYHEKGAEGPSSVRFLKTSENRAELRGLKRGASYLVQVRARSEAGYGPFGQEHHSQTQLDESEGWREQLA

T2: human EphB6 extracellular region-SEAP-His protein (human, UniProt O15197 32-594)
T2 construct: extracellular domain; also called hEphB6-SEAP-His
T2 sequence (looked up): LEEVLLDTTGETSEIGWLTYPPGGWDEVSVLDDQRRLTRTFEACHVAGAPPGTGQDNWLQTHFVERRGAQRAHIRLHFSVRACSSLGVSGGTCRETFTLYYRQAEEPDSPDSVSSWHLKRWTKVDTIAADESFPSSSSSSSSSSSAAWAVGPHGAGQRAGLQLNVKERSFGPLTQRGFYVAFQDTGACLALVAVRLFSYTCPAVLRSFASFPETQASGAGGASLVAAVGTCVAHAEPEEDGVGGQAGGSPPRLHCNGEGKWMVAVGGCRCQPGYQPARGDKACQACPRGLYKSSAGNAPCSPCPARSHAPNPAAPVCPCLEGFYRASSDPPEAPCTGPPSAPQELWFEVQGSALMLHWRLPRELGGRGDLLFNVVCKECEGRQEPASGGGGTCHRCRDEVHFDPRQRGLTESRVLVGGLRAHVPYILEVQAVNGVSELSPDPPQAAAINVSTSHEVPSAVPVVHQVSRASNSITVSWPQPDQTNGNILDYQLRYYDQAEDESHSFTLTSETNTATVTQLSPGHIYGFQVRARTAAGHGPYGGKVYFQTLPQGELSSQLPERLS

B1: humanized antibody No. 76 (antibody, human IgG1, kappa)
heavy: QVQLVQSGSELKKPGASVKVSCKASGYTFTDYSMHWVRQAPGQGLKWMGWINTETGEPTYAQGFTGRFVFSLDTSVSTAYLQISSLKAEDTAVYYCARIPLYYYGSRYWYFDVWGQGTTVTVSSASTKGPSVFPLAPSSKSTSGGTAALGCLVKDYFPEPVTVSWNSGALTSGVHTFPAVLQSSGLYSLSSVVTVPSSSLGTQTYICNVNHKPSNTKVDKRVEPKSCDKTHTCPPCPAPPAAAPSVFLFPPKPKDTLMISRTPEVTCVVVDVSHEDPEVQFNWYVDGVEVHNAKTKPREEQFNSTFRVVSVLTVVHQDWLNGKEYKCKVSNKGLPAPIEKTISKTKGQPREPQVYTLPPSREEMTKNQVSLTCLVKGFYPSDIAVEWESNGQPENNYKTTPPMLDSDGSFFLYSKLTVDKSRWQQGNVFSCSVMHEALHNHYTQKSLSLSPG
light: DIQMTQSPSSLSASVGDRVTITCRASENIYRNLAWYQQKPGKAPKLLVYAATNLADGVPSRFSGSGSGTDYTLTISSLQPEDFATYYCQHFWGTPWTFGQGTKVEIKRTVAAPSVFIFPPSDEQLKSGTASVVCLLNNFYPREAKVQWKVDNALQSGNSQESVTEQDSKDSTYSLSSTLTLSKADYEKHKVYACEVTHQGLSSPVTKSFNRGEC
notes: human Ig kappa; also called L1-4/HA2
B2: humanized antibody No. 140 (antibody, human IgG2)
heavy: QVQLVQSGSELKKPGASVKVSCKASGYTFTDYSMHWVRQAPGQGLKWMGWINTETGEPTYAQGFTGRFVFSLDTSVSTAYLQISSLKAEDTAVYYCARIPLYYYGSRYWYFDVWGQGTTVTVSSASTKGPSVFPLAPSSRSTSESTAALGCLVKDYFPEPVTVSWNSGALTSGVHTFPAVLQSSGLYSLSSVVTVPSSNFGTQTYTCNVDHKPSNTKVDKTVERKSCVECPPCPAPPAAAPSVFLFPPKPKDTLMISRTPEVTCVVVDVSHEDPEVQFNWYVDGVEVHNAKTKPREEQFNSTFRVVSVLTVVHQDWLNGKEYKCKVSNKGLPAPIEKTISKTKGQPREPQVYTLPPSREEMTKNQVSLTCLVKGFYPSDIAVEWESNGQPENNYKTTPPMLDSDGSFFLYSKLTVDKSRWQQGNVFSCSVMHEALHNHYTQKSLSLSPG
light: B1 light
notes: as for B1
B3: humanized antibody No. 139 (antibody, human IgG2)
heavy: B2 heavy with K46E
light: B1 light
notes: human Ig kappa; also called L1-4/HA1
B4: humanized antibody No. 83 (antibody, human IgG1, kappa)
heavy: B1 heavy with V2I
light: B1 light with V48L, P80S
notes: human Ig kappa; also called L1-5/HA4
B5: humanized antibody No. 85 (antibody, human IgG1, kappa)
heavy: B1 heavy with Q62D, G63D, T65K
light: B1 light with V48L, P80S
notes: human Ig kappa; also called L1-5/HK2
B6: humanized antibody No. 92 (antibody, human IgG1, kappa)
heavy: B1 heavy with V2I, Q62D, G63D, T65K
light: B1 light with K45Q, V48L
notes: human Ig kappa; also called L1-6/HK4
B7: humanized antibody No. 87 (antibody, human IgG1, kappa)
heavy: B1 heavy with K46E
light: B1 light with K45Q, V48L
notes: human Ig kappa; also called L1-6/HA1
B8: humanized antibody No. 82 (antibody, human IgG1, kappa)
heavy: B1 heavy
light: B1 light with V48L, P80S
notes: human Ig kappa; also called L1-5/HA2
B9: humanized antibody No. 88 (antibody, human IgG1, kappa)
heavy: B1 heavy
light: B1 light with K45Q, V48L
notes: human Ig kappa; also called L1-6/HA2
B10: humanized antibody No. 69 (antibody, human IgG1, kappa)
heavy: B1 heavy with V2I, Q62D, G63D, T65K
light: B1 light
notes: human Ig kappa; also called L1-4/HK4

Biological target: SEAP-His (UniProt P05187 23-511)
Sequence (P05187 23-511): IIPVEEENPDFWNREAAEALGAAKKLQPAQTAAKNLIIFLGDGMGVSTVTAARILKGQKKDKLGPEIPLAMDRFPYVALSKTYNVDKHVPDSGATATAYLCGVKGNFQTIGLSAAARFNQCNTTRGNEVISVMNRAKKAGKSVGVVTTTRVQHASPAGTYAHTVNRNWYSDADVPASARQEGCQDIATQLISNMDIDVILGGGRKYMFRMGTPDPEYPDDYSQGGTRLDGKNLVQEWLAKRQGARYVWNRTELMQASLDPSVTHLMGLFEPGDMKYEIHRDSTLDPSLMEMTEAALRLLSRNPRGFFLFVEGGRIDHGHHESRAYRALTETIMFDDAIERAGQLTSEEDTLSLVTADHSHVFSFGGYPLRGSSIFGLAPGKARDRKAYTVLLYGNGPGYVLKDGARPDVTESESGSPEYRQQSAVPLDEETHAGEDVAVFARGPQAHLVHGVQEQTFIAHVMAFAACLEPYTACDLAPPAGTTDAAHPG
Experiment: ELISA

Point of comparison: B5, “A450 as % of hEphA4-SEAP-His” value 5.3%. Against it:
- B1 — higher, 5.5%
- B2 — higher, 5.4%
- B3 — higher, 5.7%
- B4 — higher, 6.5%
- B6 — higher, 6.5%
- B7 — higher, 5.5%
- B8 — higher, 5.9%
- B9 — higher, 6.1%
- B10 — higher, 6.1%

Biological target: T3, human EphA2 extracellular region-SEAP-His protein (human, UniProt P29317 24-537)
T3 construct: extracellular domain; also called hEphA2-SEAP-His
T3 sequence (P29317 24-537): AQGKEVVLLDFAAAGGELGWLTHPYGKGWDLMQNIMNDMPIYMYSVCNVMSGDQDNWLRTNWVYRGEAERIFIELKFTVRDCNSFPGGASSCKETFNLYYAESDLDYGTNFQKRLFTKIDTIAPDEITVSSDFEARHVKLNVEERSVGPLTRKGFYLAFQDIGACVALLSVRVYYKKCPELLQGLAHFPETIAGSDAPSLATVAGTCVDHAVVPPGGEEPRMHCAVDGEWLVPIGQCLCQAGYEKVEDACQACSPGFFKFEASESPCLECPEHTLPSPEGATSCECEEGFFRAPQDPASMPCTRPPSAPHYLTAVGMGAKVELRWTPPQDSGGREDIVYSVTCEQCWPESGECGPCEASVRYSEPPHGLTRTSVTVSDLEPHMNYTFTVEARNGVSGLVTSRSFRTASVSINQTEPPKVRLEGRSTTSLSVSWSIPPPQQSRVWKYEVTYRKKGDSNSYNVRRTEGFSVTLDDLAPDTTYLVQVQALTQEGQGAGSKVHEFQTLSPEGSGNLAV
Experiment: ELISA

Point of comparison: B6, “A450 as % of hEphA4-SEAP-His” value 6.9%. Against it:
- B1 — lower, 4.8%
- B2 — lower, 5.3%
- B3 — lower, 5.9%
- B4 — lower, 5.8%
- B5 — lower, 5.1%
- B7 — lower, 5.4%
- B8 — lower, 5.4%
- B9 — lower, 5.8%
- B10 — lower, 5.5%

Biological target: T1, human EphB4 extracellular …
Experiment: ELISA

Point of comparison: B5, “A450 as % of hEphA4-SEAP-His” value 5.2%. Against it:
- B1 — the same, 5.2%
- B2 — higher, 5.4%
- B3 — higher, 5.7%
- B4 — higher, 5.7%
- B6 — higher, 6.6%
- B7 — higher, 5.5%
- B8 — higher, 5.7%
- B9 — higher, 6.1%
- B10 — higher, 5.5%

Biological target: T2, human EphB6 extracellular …
Experiment: ELISA

Point of comparison: B6, “A450 as % of hEphA4-SEAP-His” value 6.5%. Against it:
- B1 — lower, 5.2%
- B2 — lower, 5.2%
- B3 — lower, 5.9%
- B4 — lower, 5.8%
- B5 — lower, 5.2%
- B7 — lower, 5.3%
- B8 — lower, 5.5%
- B9 — lower, 6.1%
- B10 — lower, 5.6%
